Assay results: PMC3234216 (PLoS Pathogens, 2011)

Target: PA63 heptamer (63 kD form of anthrax toxin protective antigen) (Bacillus anthracis, UniProt P13423)
Test: NMR titration
Settings: both partners purified

PA63 heptamer (63 kD form of anthrax toxin protective antigen), sequence (P13423 197-764): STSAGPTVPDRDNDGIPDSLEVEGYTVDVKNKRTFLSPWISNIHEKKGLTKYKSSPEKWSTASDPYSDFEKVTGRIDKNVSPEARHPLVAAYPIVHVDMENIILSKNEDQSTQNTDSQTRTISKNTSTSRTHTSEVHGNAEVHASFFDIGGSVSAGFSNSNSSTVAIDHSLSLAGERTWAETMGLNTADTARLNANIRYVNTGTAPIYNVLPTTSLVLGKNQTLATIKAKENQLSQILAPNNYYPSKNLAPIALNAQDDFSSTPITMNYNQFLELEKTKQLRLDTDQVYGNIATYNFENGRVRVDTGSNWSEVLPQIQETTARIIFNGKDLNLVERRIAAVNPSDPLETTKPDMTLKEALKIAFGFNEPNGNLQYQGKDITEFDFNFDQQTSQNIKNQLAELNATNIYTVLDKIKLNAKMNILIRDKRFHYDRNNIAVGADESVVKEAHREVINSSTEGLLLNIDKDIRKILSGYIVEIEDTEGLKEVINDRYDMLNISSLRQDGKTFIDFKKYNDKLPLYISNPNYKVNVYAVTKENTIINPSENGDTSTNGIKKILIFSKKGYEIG

B1: ANTXR2 VWA-domain (anthrax toxin receptor type 2, extracellular von Willebrand factor type A domain) (domain or fragment)
chain: SCRRAFDLYFVLDKSGSVANNWIEIYNFVQQLAERFVSPEMRLSFIVFSSQATIILPLTGDRGKISKGLEDLKRVSPVGETYIHEGLKLANEQIQKAGGLKTSSIIIALTDGKLDGLVPSYAEKEAKISRSLGASVYCVGVLDFEQAQLERIADSKEQVFPVKGGFQALKGIINSILAQSC
notes: also called capillary morphogenesis protein 2; CMG2
**Q.** Does B1 bind?
**A.** binds
